Laboratory results reported in paper PMC8345109, “Optimization of New Catalytic Topoisomerase II Inhibitors as an Anti-Cancer Therapy” (Cancers, 2021).

How the values were obtained:
TOP2A(431-1193) = TOP2A(431-1193) (Homo sapiens, UniProt P11388 431-1193); assay: EMSA; merbarone; FP: 20 mM HEPES-NaOH pH 7.4, 2 mM DTT, 3 mM MgCl2, 0.05% NP-40, protease inhibitors, room temperature 20 min; EMSA buffer not in material; conditions: protein: recombinant; tags: N-terminal 6xHis (pET28a); label: IRDye700 (printed IRDay700); blunt; self-complementary 20-mer, 2 copies
Chain of TOP2A(431-1193) (P11388 431-1193): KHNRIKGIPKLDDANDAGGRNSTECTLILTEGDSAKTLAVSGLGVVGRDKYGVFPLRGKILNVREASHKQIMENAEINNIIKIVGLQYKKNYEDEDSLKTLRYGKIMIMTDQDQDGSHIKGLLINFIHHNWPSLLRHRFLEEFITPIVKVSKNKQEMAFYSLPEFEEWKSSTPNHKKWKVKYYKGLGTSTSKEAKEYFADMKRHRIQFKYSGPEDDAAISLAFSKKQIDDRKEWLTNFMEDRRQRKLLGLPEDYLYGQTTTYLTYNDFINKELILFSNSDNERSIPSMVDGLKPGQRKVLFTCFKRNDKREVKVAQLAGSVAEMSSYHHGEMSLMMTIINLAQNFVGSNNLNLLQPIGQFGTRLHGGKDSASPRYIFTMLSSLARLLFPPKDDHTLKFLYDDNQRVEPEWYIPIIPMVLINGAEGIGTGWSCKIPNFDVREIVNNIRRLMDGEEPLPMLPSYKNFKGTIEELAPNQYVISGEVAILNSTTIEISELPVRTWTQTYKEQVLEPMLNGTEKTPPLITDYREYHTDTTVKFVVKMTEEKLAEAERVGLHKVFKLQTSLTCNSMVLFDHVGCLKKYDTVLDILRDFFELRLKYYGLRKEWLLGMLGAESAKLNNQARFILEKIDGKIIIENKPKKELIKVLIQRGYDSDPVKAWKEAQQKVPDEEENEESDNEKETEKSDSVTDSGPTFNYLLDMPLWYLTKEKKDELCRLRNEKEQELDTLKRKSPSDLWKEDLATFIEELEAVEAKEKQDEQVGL

TOP2A full-length = TOP2A full-length (Homo sapiens, UniProt P11388 1-1531); assay: EMSA; 200 uM ICRF193; FP: 20 mM HEPES-NaOH pH 7.4, 2 mM DTT, 3 mM MgCl2, 0.05% NP-40, protease inhibitors, room temperature 20 min; EMSA buffer not in material; conditions: protein: recombinant; label: IRDye700 (printed IRDay700); blunt; self-complementary 20-mer, 2 copies
Chain of TOP2A full-length (P11388 whole entry): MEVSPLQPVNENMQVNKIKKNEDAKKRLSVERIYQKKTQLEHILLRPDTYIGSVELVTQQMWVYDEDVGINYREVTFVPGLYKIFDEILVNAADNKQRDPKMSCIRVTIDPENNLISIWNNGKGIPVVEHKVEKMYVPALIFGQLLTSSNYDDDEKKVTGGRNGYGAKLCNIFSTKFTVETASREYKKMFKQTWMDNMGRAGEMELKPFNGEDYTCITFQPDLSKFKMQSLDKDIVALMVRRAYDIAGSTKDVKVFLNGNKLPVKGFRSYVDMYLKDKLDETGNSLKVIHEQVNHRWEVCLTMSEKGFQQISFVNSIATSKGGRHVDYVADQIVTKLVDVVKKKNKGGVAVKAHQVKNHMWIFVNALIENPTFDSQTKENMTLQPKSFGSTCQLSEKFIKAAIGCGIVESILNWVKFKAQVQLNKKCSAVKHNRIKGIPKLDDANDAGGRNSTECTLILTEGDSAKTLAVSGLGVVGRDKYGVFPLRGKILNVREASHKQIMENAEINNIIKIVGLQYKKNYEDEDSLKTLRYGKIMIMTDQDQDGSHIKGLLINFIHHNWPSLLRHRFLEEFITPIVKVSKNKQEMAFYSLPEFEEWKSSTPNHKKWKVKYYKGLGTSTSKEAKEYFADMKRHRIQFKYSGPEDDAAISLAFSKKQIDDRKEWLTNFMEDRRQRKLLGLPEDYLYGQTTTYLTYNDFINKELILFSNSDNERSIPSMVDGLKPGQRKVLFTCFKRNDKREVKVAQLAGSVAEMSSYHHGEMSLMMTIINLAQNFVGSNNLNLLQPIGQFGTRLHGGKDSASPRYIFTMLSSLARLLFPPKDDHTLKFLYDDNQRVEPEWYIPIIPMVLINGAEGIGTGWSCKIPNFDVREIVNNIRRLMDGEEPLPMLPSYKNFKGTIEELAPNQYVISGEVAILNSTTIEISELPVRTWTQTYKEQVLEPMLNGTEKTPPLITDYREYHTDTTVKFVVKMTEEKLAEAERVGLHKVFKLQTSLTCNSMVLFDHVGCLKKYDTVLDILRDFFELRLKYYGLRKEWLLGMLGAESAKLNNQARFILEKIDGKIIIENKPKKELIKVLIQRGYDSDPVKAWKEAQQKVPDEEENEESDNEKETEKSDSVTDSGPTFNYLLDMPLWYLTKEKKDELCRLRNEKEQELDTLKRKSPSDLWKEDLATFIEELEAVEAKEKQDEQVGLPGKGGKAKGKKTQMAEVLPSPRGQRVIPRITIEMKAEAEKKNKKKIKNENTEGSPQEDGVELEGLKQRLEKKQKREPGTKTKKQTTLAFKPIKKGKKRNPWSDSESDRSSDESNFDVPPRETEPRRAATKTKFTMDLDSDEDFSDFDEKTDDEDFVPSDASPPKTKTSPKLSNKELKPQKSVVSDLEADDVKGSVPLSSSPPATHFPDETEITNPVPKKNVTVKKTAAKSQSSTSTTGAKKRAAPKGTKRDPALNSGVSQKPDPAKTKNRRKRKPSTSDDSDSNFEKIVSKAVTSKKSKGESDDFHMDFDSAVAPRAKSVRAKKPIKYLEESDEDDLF

TOP2B full-length = TOP2B full-length (Homo sapiens, UniProt Q02880 1-1626); assay: as above; conditions: protein: recombinant; label: IRDye700 (printed IRDay700); blunt; self-complementary 20-mer, 2 copies
Chain of TOP2B full-length (Q02880 whole entry): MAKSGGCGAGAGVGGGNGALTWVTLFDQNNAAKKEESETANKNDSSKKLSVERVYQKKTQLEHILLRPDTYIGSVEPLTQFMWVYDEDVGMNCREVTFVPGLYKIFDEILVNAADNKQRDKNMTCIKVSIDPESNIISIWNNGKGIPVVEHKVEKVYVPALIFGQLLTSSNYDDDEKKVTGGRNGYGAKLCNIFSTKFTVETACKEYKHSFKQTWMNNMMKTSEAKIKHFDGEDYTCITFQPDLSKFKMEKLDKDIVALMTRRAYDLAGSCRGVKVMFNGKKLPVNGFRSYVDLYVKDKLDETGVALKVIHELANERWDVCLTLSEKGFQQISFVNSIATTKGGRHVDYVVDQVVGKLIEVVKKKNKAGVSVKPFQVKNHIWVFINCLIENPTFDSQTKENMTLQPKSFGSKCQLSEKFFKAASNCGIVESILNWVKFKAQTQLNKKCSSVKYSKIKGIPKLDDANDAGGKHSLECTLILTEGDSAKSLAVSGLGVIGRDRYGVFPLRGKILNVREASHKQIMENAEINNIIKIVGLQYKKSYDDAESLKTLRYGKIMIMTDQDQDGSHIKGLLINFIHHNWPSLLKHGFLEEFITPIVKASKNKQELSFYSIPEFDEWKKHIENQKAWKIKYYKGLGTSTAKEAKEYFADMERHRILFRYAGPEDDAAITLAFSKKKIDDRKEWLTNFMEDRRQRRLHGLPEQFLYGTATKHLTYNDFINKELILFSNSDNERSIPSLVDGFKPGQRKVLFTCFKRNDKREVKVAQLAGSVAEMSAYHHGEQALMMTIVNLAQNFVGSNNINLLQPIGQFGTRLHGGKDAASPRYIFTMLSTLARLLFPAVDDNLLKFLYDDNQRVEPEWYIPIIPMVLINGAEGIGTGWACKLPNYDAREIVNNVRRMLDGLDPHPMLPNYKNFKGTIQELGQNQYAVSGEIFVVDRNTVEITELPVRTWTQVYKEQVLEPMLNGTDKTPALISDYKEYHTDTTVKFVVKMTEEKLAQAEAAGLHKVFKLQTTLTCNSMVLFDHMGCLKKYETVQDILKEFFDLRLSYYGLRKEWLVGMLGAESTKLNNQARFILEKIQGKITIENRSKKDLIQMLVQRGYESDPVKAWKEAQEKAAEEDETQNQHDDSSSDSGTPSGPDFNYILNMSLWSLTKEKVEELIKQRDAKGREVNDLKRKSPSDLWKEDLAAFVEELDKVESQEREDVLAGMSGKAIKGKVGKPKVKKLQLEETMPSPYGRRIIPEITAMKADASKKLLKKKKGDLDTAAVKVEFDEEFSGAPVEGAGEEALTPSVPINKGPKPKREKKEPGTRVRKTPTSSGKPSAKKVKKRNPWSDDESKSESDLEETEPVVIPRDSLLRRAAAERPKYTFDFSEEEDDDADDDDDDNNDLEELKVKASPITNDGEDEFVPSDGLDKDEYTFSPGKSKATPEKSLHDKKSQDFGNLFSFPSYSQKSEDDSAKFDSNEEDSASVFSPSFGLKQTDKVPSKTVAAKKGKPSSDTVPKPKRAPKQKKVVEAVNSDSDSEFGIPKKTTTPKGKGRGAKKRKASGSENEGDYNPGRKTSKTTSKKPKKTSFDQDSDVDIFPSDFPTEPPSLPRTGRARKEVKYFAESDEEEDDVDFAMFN

Measured: binding result

B1: 5ZRF DNA oligo (IRDye700) (dsDNA)
DNA 1: AGCCGAGCTGCAGCTCGGCT
DNA 2: AGCCGAGCTGCAGCTCGGCT
binds: all assays above
